The values below come from patent publication US20240181006A1, “POLYPEPTIDES BINDING ADAMTS5, MMP13 AND AGGRECAN” (Merck Patent GmbH, priority 2017, published 2024).

Assay [1] deals with recombinant cynomolgus Aggrecan G1-IGD-G2 (cynomolgus). As to the kind of experiment: periplasmic extract ELISA on Cy G1-IGD-G2. (In general: An ELISA detects its analyte on a solid surface through an enzyme-linked reagent.)
Assay [2] concerns the target recombinant human Aggrecan G1-IGD-G2 (human) (UniProt P16112). In words: periplasmic extract ELISA on Hu G1-IGD-G2.
The target in assay [3] is recombinant rat Aggrecan G1-IGD-G2 (rat) (UniProt P07897). In words: periplasmic extract ELISA on Rat G1-IGD-G2.
Assay [4] concerns the target recombinant dog Aggrecan G1-IGD-G2 (dog) (UniProt Q28343). As to the kind of experiment: periplasmic extract ELISA on Dog G1-IGD-G2.
In assay [5] the target is recombinant bovine Aggrecan G1-IGD-G2 (bovine) (UniProt P13608). In words: periplasmic extract ELISA on Bov G1-IGD-G2.
The next assay has as its target bovine ADAMTS5 (bovine) (UniProt Q9TT92). In words: SPR (Biacore T100), ADAMTS5 immobilized on CM5, 100 nM ISVD, Experiment 3.

B1: anti-Aggrecan ISVD 114F08 (VHH)
VHH: EVQLVESGGGLVQAGGSLRLSCAASGSTFIINVVRWYRRTPGKQRELVATISSGGNANYVDSVRGRFSISRDGAKNAVDLQMNGLKPEDTAVYYCNVPTTHYGGVYYGPYWGQGTLVTVSS
Regarding B1, the OD 450 nm in assay [1] is 2.32 OD 450 nm; in assay [2], 2.38 OD 450 nm; in assay [3] it was 2.05 OD 450 nm; in assay [4] it was 1.9 OD 450 nm; in assay [5], 1.18 OD 450 nm.

B2: anti-ADAMTS5 ISVD 02F03 (VHH)
VHH: EVQLVESGGGVVQPGGSLRLSCAASGRTVSSYAMGWFRQAPGKEREFVAGISRSAERTYYVDSLKGRFTISRDNSKNTVYLQMNSLRPEDTALYYCAADLDPNRIFSREEYAYWGQGTLVTVSS
In the case of B2, the koff (in general, a measure of how fast the partners let go of each other) in the assay with bovine ADAMTS5 (bovine) was 4.3e-05 s⁻¹.
